Where a chain is given by its changes, count along the chain named.
B1: CCL18_HUMAN (ligand)
chain: AQVGTNKELCCLVYTSWQIPQKFIVDYSETSPQCPKPGVILLTKRGRQICADPNKKWVQKYISDLKLNA
B2: CCL1_HUMAN (ligand)
chain: KSMQVPFSRCCFSFAEQEIPLRAILCYRNTSSICSNEGLIFKLKRGKEACALDTVGWVQRHRKMLRHCPSKRK
B3: CCL17_HUMAN (ligand)
chain: ARGTNVGRECCLEYFKGAIPLRKLKTWYQTSEDCSRDAIVFVTVQGRAICSDPNNKRVKNAVKYLQSLERS
B4: CCL19_HUMAN (ligand)
chain: GTNDAEDCCLSVTQKPIPGYIVRNFHYLLIKDGCRVPAVVFTTLRGRQLCAPPDQPWVERIIQRLQRTSAKMKRRSS
B5: CCL5_HUMAN (ligand)
chain: SPYSSDTTPCCFAYIARPLPRAHIKEYFYTSGKCSNPAVVFVTRKNRQVCANPEKKWVREYINSLEMS
B6: CCL27_HUMAN (ligand)
chain: FLLPPSTACCTQLYRKPLSDKLLRKVIQVELQEADGDCHLQAFVLHLAQRSICIHPQNPSLSQWFEHQERKLHGTLPKLNFGMLRKMG
B7: P1166_IXORI (other)
chain: GPETKEDKKSDVYELFTVEYCGTNCTLLTNGRWTACTGKKGTCRCYHESGEKVGLCLSTEYTDFSEYPNPKSSEIDAAAPLPRETH
B8: P1132_IXORI (other)
chain: LSDEDELFSVEYCGTNCTKQDTGSWTTCSGNCTCYHEDGKKVGLCLSTEYTDFTKFPKPTSEEIANARPLPKREKTLN
B9: CCL24_HUMAN (ligand)
chain: VVIPSPCCMFFVSKRIPENRVVSYQLSSRSTCLKAGVIFTTKKGQQFCGDPKQEWVQRYMKNLDAKQKKASPRARAVA
B10: CCL22_HUMAN (ligand)
chain: GPYGANMEDSVCCRDYVRYRLPLRVVKHFYWTSDSCPRPGVVLLTFRDKEICADPRVPWVKMILNKLSQ
B11: P458_IXORI (other)
chain: GSKQPGAAGSSSDSVEAVFCPTNCTKGTNGAWSGCSDDCICVHVGENTEGSCMKFSGDYDYPTPEA
B12: P1100_IXORI (other)
chain: GSKGSSASQSSDNSVVAKFCDTNCTINEGGKWTECKGGCFCVHVGNETVGRCMKLDGDYDYPSPKPEE
B13: P1124_IXORI (other)
chain: DSKGTSDSQDSTKSIKVDFCETNCTKTDGGWTGCTGDCICVSVGDSIEGRCMDFG
B14: P1096_IXORI (other)
chain: HTTVTGSVEGKPNNPNEDIEVSYCRMNCTVENGVSSACSGDCVCVHRDNEPNGICVEITYFGDFGDPSQDPSIDEAAPRESVSKRRSNGES
B15: P1134_IXORI (other)
chain: NEEVFTVEYCGMNCTQKSDGTWTECSGKNKDCRCYHESDAREGLCLSTEYTDFSQFETPSNSDLEAATPRPRKTLYPVRNPHGPKTRGLGYDKRILRDRVKFLI
B16: P1095_IXORI (other)
chain: HSPVAGSEVQKLTSDPNDDIDVSYCGMNCTVVNGKSDECSENCKCLHEGDDPKGICVAITYFGDWGDPNDDPKINEATPQTQIFEKKRK

Biological target: T1, P1181_AMBMA (Amblyomma maculatum, UniProt G3MIX6 26-115)
T1 sequence: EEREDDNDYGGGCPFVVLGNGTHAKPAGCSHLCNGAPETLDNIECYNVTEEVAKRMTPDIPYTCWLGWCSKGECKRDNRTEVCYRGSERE
Assay: BLI

Row | Binder | Kd [nM]
1 | B1 | 10

Biological target: T2, P974_AMBCA (Amblyomma cajennense, UniProt A0A023FDY8 22-118)
T2 sequence: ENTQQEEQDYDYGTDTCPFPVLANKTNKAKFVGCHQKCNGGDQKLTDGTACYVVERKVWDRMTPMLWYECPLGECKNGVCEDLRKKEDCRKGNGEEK
Assay: BLI

Row | Binder | Kd [nM]
2 | B2 | 70.5
3 | B3 | 70.6
4 | B1 | 17

Biological target: T3, P546_AMBCA (Amblyomma cajennense, UniProt A0A023FBW7 22-118)
T3 sequence: T2 sequence with Q8E, E69S, D88E
Assay: BLI

Row | Binder | Kd [nM]
5 | B2 | 160
6 | B3 | 70
7 | B1 | 16

Biological target: T4, P1243_AMBAM (Amblyomma americanum, UniProt A0A0C9S461 26-123)
T4 sequence: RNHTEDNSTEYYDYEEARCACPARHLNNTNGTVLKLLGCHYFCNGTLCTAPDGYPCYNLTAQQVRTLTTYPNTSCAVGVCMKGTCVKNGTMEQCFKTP
Assay: BLI

Row | Binder | Kd [nM]
8 | B2 | 21.3
9 | B3 | 0.734
10 | B1 | 0.00501
11 | B4 | 0.592
12 | B5 | 1.74
13 | B6 | 15.1

Biological target: T5, P467_RHIPU (Rhipicephalus pulchellus, UniProt L7M8Z8 22-127)
T5 sequence: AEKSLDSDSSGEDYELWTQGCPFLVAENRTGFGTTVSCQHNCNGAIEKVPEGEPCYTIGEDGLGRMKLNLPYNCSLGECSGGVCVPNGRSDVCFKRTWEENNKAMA
Assay: BLI

Row | Binder | Kd [nM]
14 | B2 | 53.4
15 | B1 | 16.6
16 | B5 | 7.67

Biological target: T6, P985_AMBPA (Amblyomma parvum, UniProt A0A023FT45 25-132)
T6 sequence: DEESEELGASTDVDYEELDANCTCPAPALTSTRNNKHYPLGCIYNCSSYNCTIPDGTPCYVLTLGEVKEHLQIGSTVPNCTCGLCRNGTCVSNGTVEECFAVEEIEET
Assay: BLI

Row | Binder | Kd [nM]
17 | B2 | 8.3
18 | B1 | 430
19 | B5 | 3.5

Biological target: T7, P1180_AMBTR (Amblyomma triste, UniProt A0A023G6B6 26-116)
T7 sequence: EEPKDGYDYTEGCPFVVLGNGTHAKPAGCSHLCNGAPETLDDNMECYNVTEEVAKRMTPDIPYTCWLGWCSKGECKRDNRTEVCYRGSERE
Assay: BLI

Row | Binder | Kd [nM]
20 | B1 | 5.8

Biological target: T8, P1182_AMBMA (Amblyomma maculatum, UniProt G3MJ83 27-115)
T8 sequence: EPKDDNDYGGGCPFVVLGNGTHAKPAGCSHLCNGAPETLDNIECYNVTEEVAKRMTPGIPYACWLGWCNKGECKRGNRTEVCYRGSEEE
Assay: BLI

Row | Binder | Kd [nM]
21 | B1 | 33

Biological target: T9, P991_AMBCA (Amblyomma cajennense, UniProt A0A023FFD0 29-136)
T9 sequence: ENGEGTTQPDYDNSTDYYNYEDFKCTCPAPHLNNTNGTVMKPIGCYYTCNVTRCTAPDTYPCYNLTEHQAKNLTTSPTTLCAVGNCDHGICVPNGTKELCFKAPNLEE
Assay: BLI

Row | Binder | Kd [nM]
22 | B3 | 7.66
23 | B1 | 0.209
24 | B4 | 14.4
25 | B5 | 1.47

Biological target: T10, CXCL1_HUMAN (human, UniProt P09341 35-107)
T10 sequence: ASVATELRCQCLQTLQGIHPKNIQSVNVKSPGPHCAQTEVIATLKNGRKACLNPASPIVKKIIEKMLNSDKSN
Assay: yeast surface display FACS re-test; also: test concentration or dose not given here

Row | Binder | % cells over threshold fluorescence [%]
26 | B7 | 63
27 | B8 | 68

Biological target: T4, P1243_AMBAM
Assay: BLI
Remark: another data set of the same source

Row | Binder | Kd [nM]
28 | B2 | 21.2
29 | B3 | 0.734
30 | B9 | 7.39
31 | B1 | 0.005
32 | B4 | 0.592
33 | B10 | 22.3
34 | B5 | 1.74
35 | B6 | 15.1

Biological target: T11, CXCL8_HUMAN (human, UniProt P10145 28-99)
T11 sequence: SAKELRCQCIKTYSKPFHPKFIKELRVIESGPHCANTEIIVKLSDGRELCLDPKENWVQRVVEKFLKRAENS
Assay: BLI [Cont.]

Row | Binder | binding result
36 | B11 | no binding (tested: 300 nM)
37 | B12 | no binding (tested: 300 nM)
38 | B13 | no binding (tested: 300 nM)

Biological target: T12, CXCL7_HUMAN (human, UniProt P02775 59-128)
T12 sequence: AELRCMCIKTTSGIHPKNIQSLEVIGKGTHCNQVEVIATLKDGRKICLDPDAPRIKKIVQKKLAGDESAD
Assay: BLI [Cont.]

Row | Binder | binding result
39 | B11 | no binding (tested: 300 nM)
40 | B12 | no binding (tested: 300 nM)
41 | B13 | no binding (tested: 300 nM)

Biological target: T13, CXCL4_HUMAN (human, UniProt P02776 32-101)
T13 sequence: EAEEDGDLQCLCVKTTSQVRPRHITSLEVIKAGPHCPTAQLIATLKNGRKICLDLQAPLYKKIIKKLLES
Assay: BLI [Cont.]

Row | Binder | binding result
42 | B11 | no binding (tested: 300 nM)
43 | B12 | no binding (tested: 300 nM)
44 | B13 | no binding (tested: 300 nM)

Biological target: T14, CXCL13_HUMAN (human, UniProt O43927 23-109)
T14 sequence: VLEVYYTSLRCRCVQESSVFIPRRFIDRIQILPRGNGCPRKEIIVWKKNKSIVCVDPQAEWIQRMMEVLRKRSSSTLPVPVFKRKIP
Assay: BLI

Row | Binder | binding result
45 | B7 | no binding (tested: 300 nM)
46 | B8 | no binding (tested: 300 nM)

Biological target: CXCL12_HUMAN (human, UniProt P48061 22-89)
Sequence (P48061 22-89 limits assumed): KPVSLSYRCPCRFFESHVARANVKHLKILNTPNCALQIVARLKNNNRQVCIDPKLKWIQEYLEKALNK
Assay: BLI

Row | Binder | binding result | Kd [nM]
47 | B7 | no binding (tested: 300 nM) | –
48 | B14 | no binding (tested: 300 nM) | –
49 | B11 | no binding (tested: 300 nM) | –
50 | B12 | no binding (tested: 300 nM) | –
51 | B15 | no binding (tested: 300 nM) | –
52 | B8 | no binding (tested: 300 nM) | –
53 | B13 | – | 212

Biological target: T15, CXCL9_HUMAN (human, UniProt Q07325 23-125)
T15 sequence: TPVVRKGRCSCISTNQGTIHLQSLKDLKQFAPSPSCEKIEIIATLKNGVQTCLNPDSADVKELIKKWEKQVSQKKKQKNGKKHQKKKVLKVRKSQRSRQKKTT
Assay: BLI

Row | Binder | binding result
54 | B7 | no binding (tested: 300 nM)
55 | B14 | no binding (tested: 300 nM)
56 | B8 | no binding (tested: 300 nM)
57 | B16 | no binding (tested: 300 nM)

Biological target: T16, CXCL10_HUMAN (human, UniProt P02778 22-98)
T16 sequence: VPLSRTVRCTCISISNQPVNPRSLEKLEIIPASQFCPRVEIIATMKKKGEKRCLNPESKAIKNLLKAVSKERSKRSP
Assay: BLI

Row | Binder | binding result
58 | B11 | no binding (tested: 300 nM)
59 | B13 | no binding (tested: 300 nM)

Biological target: T17, CXCL14_HUMAN (human, UniProt O95715 35-111)
T17 sequence: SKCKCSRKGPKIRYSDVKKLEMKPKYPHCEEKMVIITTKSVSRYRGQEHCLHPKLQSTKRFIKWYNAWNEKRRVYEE
Assay: BLI

Row | Binder | binding result
60 | B11 | no binding (tested: 300 nM)
61 | B12 | no binding (tested: 300 nM)
62 | B13 | no binding (tested: 300 nM)

Biological target: T18, CXCL11_HUMAN (human, UniProt O14625 22-94)
T18 sequence: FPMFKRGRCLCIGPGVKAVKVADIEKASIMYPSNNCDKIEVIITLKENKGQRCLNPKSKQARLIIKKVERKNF
Assay: BLI

Row | Binder | binding result
63 | B11 | no binding (tested: 300 nM)
64 | B13 | no binding (tested: 300 nM)
